Measured values from the supplement of paper PMC10219994.
± gives the standard deviation of the averaged measurements.

B1: library; a variant is named by its letters at N, in order (parent)
chain: GAGACCGCAACTGAAAAGTTGTGGNNNNNATAGTGAGTCGCTGCCTGCAAAGACACAACT

Variants of: B1
Assay: ligation selection enrichment (abundance after / before one-round selection) (fold); higher = more template-directed ligation activity
Details: with T7Psub CACGGAUGCUAAUACGACUCACUAUA; MgCl2 25 mM; 42 °C; 4 h; pH 8.5
Outline: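 RNA ligase library with five randomized core positions (0.75 μM, T7-transcribed) was reacted with RNA substrate (6 μM) in 50 mM EPPS pH 8.5, 25 mM MgCl2 at 42 °C for 4 h, in two independent experiments. Ligated products were PAGE-purified, reverse transcribed, barcoded by PCR and MiSeq-sequenced. Reads with quality score ≥30 at all randomized positions were counted. Enrichment was abundance after ligation divided by abundance before ligation.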
GGTAT was tested, and the ligation selection enrichment was 5.34 ± 1.2.
Work on GTAGA yielded a ligation selection enrichment of 1.05 ± 0.13.
Variant GTAGT has a ligation selection enrichment of 0.166 ± 0.037.
For GTAGC, the ligation selection enrichment was 0.191 ± 0.035.
With GTAGG the ligation selection enrichment was 0.422 ± 0.043.
ATTAA gave a ligation selection enrichment of 0.524 ± 0.12.
With ATTAG the ligation selection enrichment was 1.02 ± 0.19.
Work on ATTAT yielded a ligation selection enrichment of 1.85 ± 0.22.
In the case of ATTAC, the ligation selection enrichment is reported as 0.217 ± 0.042.
Variant GTGTG has a ligation selection enrichment of 0.75 ± 0.1.
GTGTC gave a ligation selection enrichment of 0.144 ± 0.015.
Work on GTGTT yielded a ligation selection enrichment of 0.277 ± 0.011.
GTGTA showed a ligation selection enrichment of 0.265 ± 0.083.
Work on TTGAG yielded a ligation selection enrichment of 0.82 ± 0.12.
TTGAA showed a ligation selection enrichment of 1.56 ± 0.22.
TTGAT showed a ligation selection enrichment of 29.9 ± 7.4.
TTGAC was tested, and the ligation selection enrichment was 3.32 ± 0.24.
In the case of CTACT, the ligation selection enrichment is reported as 0.785 ± 0.19.
With CTACA the ligation selection enrichment was 0.114 ± 0.0039.
CTACC gave a ligation selection enrichment of 0.116 ± 0.021.
For CTACG, the ligation selection enrichment was 0.429 ± 0.14.
For TTGGA, the ligation selection enrichment was 0.294 ± 0.0019.
In the case of TTGGT, the ligation selection enrichment is reported as 0.212 ± 0.12.
Work on TTGGG yielded a ligation selection enrichment of 0.218 ± 0.023.
For TTGGC, the ligation selection enrichment was 0.191 ± 0.053.
ATCAA was tested, and the ligation selection enrichment was 0.518 ± 0.024.
With ATCAC the ligation selection enrichment was 0.175 ± 0.028.
Work on ATCAG yielded a ligation selection enrichment of 0.722 ± 0.0083.
Variant ATCAT has a ligation selection enrichment of 0.391 ± 0.082.
Work on AGTGA yielded a ligation selection enrichment of 0.842 ± 0.093.
Work on AGTGT yielded a ligation selection enrichment of 0.133 ± 0.035.
For AGTGC, the ligation selection enrichment was 0.186 ± 0.0091.
With AGTGG the ligation selection enrichment was 0.414 ± 0.077.
GTACT gave a ligation selection enrichment of 0.785 ± 0.17.
GTACG showed a ligation selection enrichment of 1.47 ± 0.055.
GTACC showed a ligation selection enrichment of 0.165 ± 0.011.
GTACA was tested, and the ligation selection enrichment was 0.288 ± 0.094.
Variant GTCTA has a ligation selection enrichment of 0.177 ± 0.024.
In the case of GTCTT, the ligation selection enrichment is reported as 0.114 ± 0.069.
Variant GTCTG has a ligation selection enrichment of 0.554 ± 0.068.
Work on GTCTC yielded a ligation selection enrichment of 0.116 ± 0.027.
ATAGC was tested, and the ligation selection enrichment was 0.131 ± 0.033.
ATAGT showed a ligation selection enrichment of 0.17 ± 0.01.
ATAGA was tested, and the ligation selection enrichment was 0.543 ± 0.062.
In the case of ATAGG, the ligation selection enrichment is reported as 0.3 ± 0.012.
In the case of CGGTA, the ligation selection enrichment is reported as 0.133 ± 0.028.
CGGTG was tested, and the ligation selection enrichment was 0.24 ± 0.069.
CGGTC was tested, and the ligation selection enrichment was 0.1 ± 0.011.
CGGTT showed a ligation selection enrichment of 0.202 ± 0.042.
AGGCG showed a ligation selection enrichment of 0.527 ± 0.12.
With AGGCT the ligation selection enrichment was 0.587 ± 0.3.
AGGCC showed a ligation selection enrichment of 0.21 ± 0.013.
AGGCA showed a ligation selection enrichment of 0.255 ± 0.066.
Work on CTCAA yielded a ligation selection enrichment of 0.116 ± 0.038.
CTCAC was tested, and the ligation selection enrichment was 0.0889 ± 0.01.
With CTCAG the ligation selection enrichment was 0.169 ± 0.011.
For CTCAT, the ligation selection enrichment was 0.104 ± 0.013.
Work on TTTCA yielded a ligation selection enrichment of 0.268 ± 0.026.
With TGTAG the ligation selection enrichment was 0.307 ± 0.076.
TGTAT was tested, and the ligation selection enrichment was 1.97 ± 0.21.
TGTAC gave a ligation selection enrichment of 0.277 ± 0.037.
Variant TGTAA has a ligation selection enrichment of 0.267 ± 0.021.
Variant CTGGG has a ligation selection enrichment of 0.152 ± 0.051.
CTGGC gave a ligation selection enrichment of 0.135 ± 0.021.
For CTGGA, the ligation selection enrichment was 0.282 ± 0.086.
CTGGT was tested, and the ligation selection enrichment was 0.18 ± 0.078.
With GTTCC the ligation selection enrichment was 0.33 ± 0.069.
GTTCA was tested, and the ligation selection enrichment was 0.545 ± 0.029.
TTCTT gave a ligation selection enrichment of 0.119 ± 0.006.
For TTCTA, the ligation selection enrichment was 0.183 ± 0.035.
With TTCTG the ligation selection enrichment was 0.954 ± 0.089.
Variant TTCTC has a ligation selection enrichment of 0.0957 ± 0.032.
For CTCGG, the ligation selection enrichment was 0.161 ± 0.036.
Variant CTCGA has a ligation selection enrichment of 0.501 ± 0.012.
With CTCGT the ligation selection enrichment was 0.216 ± 0.13.
CTCGC gave a ligation selection enrichment of 0.141 ± 0.0066.
In the case of AGGTG, the ligation selection enrichment is reported as 0.279 ± 0.036.
AGGTT was tested, and the ligation selection enrichment was 0.245 ± 0.075.
With AGGTC the ligation selection enrichment was 0.196 ± 0.011.
AGGTA showed a ligation selection enrichment of 0.41 ± 0.019.
CTCCC showed a ligation selection enrichment of 0.0937 ± 0.042.
Work on CTCCA yielded a ligation selection enrichment of 0.1489 ± 0.00039.
In the case of CTCCT, the ligation selection enrichment is reported as 0.503 ± 0.14.
CTCCG showed a ligation selection enrichment of 0.347 ± 0.032.
Work on GGTGT yielded a ligation selection enrichment of 0.181 ± 0.16.
GGTGG was tested, and the ligation selection enrichment was 0.374 ± 0.12.
With GGTGC the ligation selection enrichment was 0.226 ± 0.03.
Variant GGTGA has a ligation selection enrichment of 0.641 ± 0.064.
Variant GGGAT has a ligation selection enrichment of 167 ± 32.
In the case of GGGAG, the ligation selection enrichment is reported as 1.05 ± 0.051.
Variant TGTCC has a ligation selection enrichment of 0.338 ± 0.055.
With TGTCA the ligation selection enrichment was 0.325 ± 0.025.
In the case of TGTCG, the ligation selection enrichment is reported as 0.653 ± 0.0083.
TGTCT was tested, and the ligation selection enrichment was 0.335 ± 0.099.
ATTCA gave a ligation selection enrichment of 0.611 ± 0.08.
TTAAA gave a ligation selection enrichment of 0.329 ± 0.06.
With TTAAT the ligation selection enrichment was 7.9 ± 1.6.
Work on TTAAC yielded a ligation selection enrichment of 0.52 ± 0.0073.
In the case of TTAAG, the ligation selection enrichment is reported as 0.69 ± 0.15.
Variant CTGTA has a ligation selection enrichment of 0.136 ± 0.0097.
CTGTC gave a ligation selection enrichment of 0.18 ± 0.017.
Variant CTGTT has a ligation selection enrichment of 0.3 ± 0.027.
With CTGTG the ligation selection enrichment was 0.195 ± 0.072.
Variant TTAGT has a ligation selection enrichment of 0.265 ± 0.074.
TTAGA was tested, and the ligation selection enrichment was 0.304 ± 0.054.
TTAGG was tested, and the ligation selection enrichment was 0.306 ± 0.061.
Variant TTAGC has a ligation selection enrichment of 0.139 ± 0.035.
AGGAT gave a ligation selection enrichment of 95.7 ± 0.79.
AGGAG was tested, and the ligation selection enrichment was 0.806 ± 0.1.
For GTATT, the ligation selection enrichment was 0.236 ± 0.12.
Variant GTATA has a ligation selection enrichment of 0.2557 ± 0.00086.
With GTATC the ligation selection enrichment was 0.167 ± 0.036.
With GTATG the ligation selection enrichment was 1.4 ± 0.24.
TTTAC showed a ligation selection enrichment of 0.218 ± 0.013.
For TTTAG, the ligation selection enrichment was 0.504 ± 0.034.
TTTAT gave a ligation selection enrichment of 1.19 ± 0.53.
For TTTAA, the ligation selection enrichment was 0.18 ± 0.0051.
In the case of CTGCT, the ligation selection enrichment is reported as 0.833 ± 0.12.
With CTGCG the ligation selection enrichment was 0.5 ± 0.22.
CTGCA showed a ligation selection enrichment of 0.147 ± 0.0049.
With CTGCC the ligation selection enrichment was 0.138 ± 0.05.
Variant ATAAG has a ligation selection enrichment of 0.373 ± 0.099.
ATAAT gave a ligation selection enrichment of 2.48 ± 0.27.
Work on ATAAA yielded a ligation selection enrichment of 0.228 ± 0.05.
With ATAAC the ligation selection enrichment was 0.204 ± 0.038.
TGGAG gave a ligation selection enrichment of 1.119 ± 0.0088.
For TGGAT, the ligation selection enrichment was 233 ± 62.
TGGTA gave a ligation selection enrichment of 0.325 ± 0.017.
TGGTT showed a ligation selection enrichment of 0.438 ± 0.044.
With TGGTG the ligation selection enrichment was 0.288 ± 0.042.
With TGGTC the ligation selection enrichment was 0.198 ± 0.019.
For ATATT, the ligation selection enrichment was 0.203 ± 0.037.
ATATC was tested, and the ligation selection enrichment was 0.177 ± 0.029.
ATATA gave a ligation selection enrichment of 0.239 ± 0.089.
ATATG was tested, and the ligation selection enrichment was 1.01 ± 0.061.
With AGTTA the ligation selection enrichment was 0.434 ± 0.065.
AGTTG gave a ligation selection enrichment of 3.78 ± 0.71.
AGTTT was tested, and the ligation selection enrichment was 0.427 ± 0.11.
For AGTTC, the ligation selection enrichment was 0.176 ± 0.014.
With GGGTG the ligation selection enrichment was 0.317 ± 0.033.
For GGGTT, the ligation selection enrichment was 0.318 ± 0.011.
GGGTA was tested, and the ligation selection enrichment was 0.445 ± 0.024.
GGGTC gave a ligation selection enrichment of 0.201 ± 0.006.
In the case of TTATA, the ligation selection enrichment is reported as 0.465 ± 0.12.
TTATG was tested, and the ligation selection enrichment was 0.377 ± 0.02.
With TTATC the ligation selection enrichment was 0.152 ± 0.02.
In the case of TTATT, the ligation selection enrichment is reported as 0.206 ± 0.071.
Work on AGTAT yielded a ligation selection enrichment of 6.55 ± 1.2.
Work on AGTAA yielded a ligation selection enrichment of 0.427 ± 0.042.
AGTAC gave a ligation selection enrichment of 0.492 ± 0.1.
In the case of AGTAG, the ligation selection enrichment is reported as 1.697 ± 0.012.
For GGTTC, the ligation selection enrichment was 0.216 ± 0.015.
GGTTT gave a ligation selection enrichment of 0.452 ± 0.082.
Variant GGTTG has a ligation selection enrichment of 3.91 ± 0.67.
Work on GGTTA yielded a ligation selection enrichment of 0.477 ± 0.095.
CTATC showed a ligation selection enrichment of 0.144 ± 0.0049.
Work on CTATA yielded a ligation selection enrichment of 0.148 ± 0.068.
Variant CTATG has a ligation selection enrichment of 0.36 ± 0.029.
In the case of CTATT, the ligation selection enrichment is reported as 0.546 ± 0.083.
In the case of TTCCC, the ligation selection enrichment is reported as 0.175 ± 0.022.
TTCCG showed a ligation selection enrichment of 0.813 ± 0.068.
For TTCCA, the ligation selection enrichment was 0.142 ± 0.0024.
In the case of TTCCT, the ligation selection enrichment is reported as 0.443 ± 0.21.
CGTAA gave a ligation selection enrichment of 0.311 ± 0.023.
Work on CGTAG yielded a ligation selection enrichment of 0.612 ± 0.083.
CGTAT showed a ligation selection enrichment of 4.81 ± 0.52.
In the case of CGTAC, the ligation selection enrichment is reported as 0.447 ± 0.0085.
